# Data as given in IntAct's records for PubMed 24338975.
# B1: G-rich sequence factor 1 (Homo sapiens), Q12849 (parent)
# chain: MAGTRWVLGALLRGCGCNCSSCRRTGAACLPFYSAAGSIPSGVSGRRRLLLLLGAAAAAASQTRGLQTGPVPPGRLAGPPAVATSAAAAAAASYSALRASLLPQSLAAAAAVPTRSYSQESKTTYLEDLPPPPEYELAPSKLEEEVDDVFLIRAQGLPWSCTMEDVLNFFSDCRIRNGENGIHFLLNRDGKRRGDALIEMESEQDVQKALEKHRMYMGQRYVEVYEINNEDVDALMKSLQVKSSPVVNDGVVRLRGLPYSCNEKDIVDFFAGLNIVDITFVMDYRGRRKTGEAYVQFEEPEMANQALLKHREEIGNRYIEIFPSRRNEVRTHVGSYKGKKIASFPTAKYITEPEMVFEEHEVNEDIQPMTAFESEKEIELPKEVPEKLPEAADFGTTSSLHFVHMRGLPFQANAQDIINFFAPLKPVRITMEYSSSGKATGEADVHFETHEDAVAAMLKDRSHVHHRYIELFLNSCPKGK
# Variants of: B1
# Details: with psd10_human PSMD10, O75832
# Sequence of psd10_human PSMD10, O75832 (O75832 whole entry): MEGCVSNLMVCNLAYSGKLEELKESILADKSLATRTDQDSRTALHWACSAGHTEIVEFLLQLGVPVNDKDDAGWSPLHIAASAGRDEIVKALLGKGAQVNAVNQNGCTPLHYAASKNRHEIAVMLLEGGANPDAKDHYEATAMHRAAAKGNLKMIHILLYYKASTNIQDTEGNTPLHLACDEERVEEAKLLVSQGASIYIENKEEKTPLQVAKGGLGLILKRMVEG
row,effect of a mutation on the interaction,Variant
1,disrupting interaction strength,MAGTRWVLGALLRGCGCNCSSCRRTGAACLPFYSAAGSIPSGVSGRRRLLLLLGAAAAAASQTRGLQTGPVPPGRLAGPPAVATSAAAAAAASYSALRASLLPQSLAAAAAVPTRSYSQESKTTYLEDLPPPPEYELAPSKLEAAVADVFLIRAQGLPWSCTMEDVLNFFSDCRIRNGENGIHFLLNRDGKRRGDALIEMESEQDVQKALEKHRMYMGQRYVEVYEINNEDVDALMKSLQVKSSPVVNDGVVRLRGLPYSCNEKDIVDFFAGLNIVDITFVMDYRGRRKTGEAYVQFEEPEMANQALLKHREEIGNRYIEIFPSRRNEVRTHVGSYKGKKIASFPTAKYITEPEMVFEEHEVNEDIQPMTAFESEKEIELPKEVPEKLPEAADFGTTSSLHFVHMRGLPFQANAQDIINFFAPLKPVRITMEYSSSGKATGEADVHFETHEDAVAAMLKDRSHVHHRYIELFLNSCPKGK [E144A;E145A;D147A]
